Data published in a protein production outcome set (Wang et al. 2014).

Experiment: label from the status in PepcDB records

## MSLSRVTEIRYVGYGVKDFDAEKAFYADVWGLEPVGEDANNAWFKAQGADEHHVVQLRRADENRIDVIALAADSRSDVDALRASVEAAGCKVASEPAVLATPGGGYGFRFFSPDGLLFEVSSDVAKGAKRDLARWEGVPVKISHIVLHSPNHQDMVKFFTDVLGFKVSDWLGDFMCFLRCNSAHHRIAILPGPPCLNHVAYDMLSVDDMMRGAHRLKVKGIDIGWGPGRHTAGNNTFSYFVTPGGFVTEYTSELEEVDFDTHQYKVHVPAPMVMDQWGIGTGGPQTLPHPHANPGLFQTAEAEGHHHHHH
  protein production: not failed

## MNVSHISAVSYYFARYIQEVLEVPVGIVVSTWGGSKIEAWMSRESIKPFSSIDLSILDNDAEVKNPTATPCVLYNGKIAPLTNFAVRGFLWYQGESNRDNADLYQSLMPAFVADLRAKWGRGELPFYFVQIAPFDYEGADGTSAARLREVQLQNMKDIPNSGMVTTMDVGHPVFIHPVDKETVGNRLAYWALAQTYGMKGFGYAPPVYKSMEIQENKIYINFYNAQRGLSPMWTSLKGFEIAGEDKVFYPAFAEIETTTARLAVSSDKVSHPVAVRYAYKNYVEASIFSIHGIPAAPFRTDNWLEHHHHHH
  protein production: failed

## GCTLSAEERAALERSKAIEKNLKEDGISAAKDVKLLLLGAGESGKSTIVKQMKIIHEDGFSGEDVKQYKPVVYSNTIQSLAAIVRAMDTLGIEYGDKERKADAKMVCDVVSRMEDTEPFSAELLSAMMRLWGDSGIQECFNRSREYQLNDSAKYYLDSLDRIGAADYQPTEQDILRTRVKTTGIVETHFTFKNLHFRLFDVGGQRSERKKWIHCFEDVTAIIFCVALSGYDQVLHEDETTNRMHESLKLFDSICNNKWFTDTSIILFLNKKDIFEEKIKKSPLTICFPEYTGPSAFTEAVAYIQAQYESKNKSAHKEIYTHVTCATDTNNIQFVFDAVTDVIIAKNLRGCGLY
  protein production: failed

## MNQIAPRRFSGLRIVLLVLLAVLAFLLLMPTRVQPVAWNPAPAPSLSQGPFAENQKLKAVQPVGARDIDGPEALLLEHEQLLSGLHDGRVIQSSLDGSALKVLVNTGGRPLGLARHPDGRLIIADAIKGLLALDSQGQLQTLSTEANGLKFGFTDDVAVDAAGRYAYFSDATSRWGYGHDGEAVIEHGADGRLLRYDFQSGTTEVLLDRLEFANGIALGPDEAYVLVNETGAYRISRYWLKGDKAGSHDLFIDNLPGLPDNLSFNGAGRFWVALYAPRNPLLDATAPYPFVRKMLVRAMTVLPKPVEKRGFVLGLDTQGRVIANLQDGSSGNYSPITTVREYGDALYLGSLTARHMARLSLKEALAP
  protein production: failed

## LERDEQIRLQDDFLFRSQFNIGNIGIAITGIDQKWIKVNPRLCQMLKYSEDELLHMTWKQLTHPDDLDADVAKFEQMLAGNIDNYELDKRFIAKNGSLVYTHMTVACKRTNHQVLLVISGYLDVTAQTLADRE
  protein production: failed

## SSISRANKKKPSMPNVSNDLSQKLYATMEKHKEVFFVIHLHAGPVINTLPPIVDPDPLLSCDLMDGRDAFLTLARDKHWEFSSLRRSKWSTLCMLVELHTQ
  protein production: failed

## MPKKLGPKSQRQRGAVAPLTQVQQAACSPTYKQAKRNARSYQGRRRRRRCSQNTTSRVPSQLQAVDSSSASCRTYKNSEELRSRIVSGIITPIHEQWEKANVSSPHREFPPATAREVDPLRIPPHHPHTSRQPPWCDPLGPFVVGGEDLDPFGPRRGGMIVDPLRSGFPRALIDPSSGLPNRLPPGAVPPGARFDPFGPIGTSPPGPNPDHLPPPGYDDMYL
  protein production: failed

## MSLSSPNILLTRIDNRLVHGQVGVTWTSTIGANLLVVVDDVVANDDIQQKLMGITAETYGFGIRFFTIEKTINVIGKAAPHQKIFLICRTPQTVRKLVEGGIDLKDVNVGNMHFSEGKKQISSKVYVDDQDLTDLRFIKQRGVNVFIQDVPGDQKEQIPDEGHHHHHH
  protein production: not failed

## MSLPAFVEALLTPAAYPHAVTTPIQLLQTHISYVFLTGDYAYKVKKPADFGFLNFTTLERRLFYCQEELRLNRRLAPDLYLAVVPIVAVGDRYCVAHPQDLPAGAEVIEYAVQMRQFDQSQLFSHLFAANQVTPHLIESLGKELAHFHRCAATSPRISEFGSPRAIAQVINNCHALAAQFVGRCQSPEQYAAIQAFTDDFLSRRQEWFVRRQAGGKIRECHGDLHLNNICLYNGKVQIFDCIEFNEEFRNIDGIYDAAFLLMDLEFRRRGDLANLFLNTYLEWSGDYEGAVLLPLYLCVRAYIRGNVNALALNDPAISGAEKAQIQATAAAYYGAAYRYTQPRQAKLYMMCGLSGAGKSTRGRRLAQAEQAIQIRSDAVRKHLAHLPLDRRSTDFPEVDLYSDAMTEKTYDQLLAYAELLLPQGQTVILDAKYDRVALRQPVIALAKKLHVPLEIHFCSAPPEELHRRLSARQGDIAEATPDLIATQMASFEPFLPEEEPYVRHVCD
  protein production: failed

## MSLDFWLYKQAQQNGHHIAITDGQESYTYQNLYCEASLLAKRLKAYQQSRVGLYIDNSIQSIILIHACWLANIEIAMINTRLTPNEMTNQMRSIDVQLIFCTLPLELRGFQIVSLDDIEFAGRDITTNGLLDNTMGIQYDTSNETVVPKESPSNILNTSFNLDDIASIMFTSGTTGPQKAVPQTFRNHYASAIGCKESLGFDRDTNWLSVLPIYHISGLSVLLRAVIEGFTVRIVDKFNAEQILTMIKNERITHISLVPQTLNWLMQQGLHEPYNLQKILLGGAKLSATMIETALQYNLPIYNSFGMTETCSQFLTATPEMLHARPDTVGMPSANVDVKIKNPNKEGHGELMIKGANVMNGYLYPTDLTGTFENGYFNTGDIAEIDHEGYVMIYDRRKDLIISGGENIYPYQIETVAKQFPGISDAVCVGHPDDTWGQVPKLYFVSESDISKAQLIAYLSKHLAKYKVPKHFEKVDTLPYTSTGKLQRNKLYREGHHHHHH
  protein production: not failed

## MGLDVDWALDWLKLSAKAMAEHRVELIELDRPIGDSDHGENMDRGFQAVLQKLDETPPETPGAALKAAAMALMSKVGGAAGPLYGTAYLRAATSLGDAGDIDAEALAAALAAARDGVVARGKAELGDKTMIDAWTPAVEAAQKAAASGADPVAVLEAAAEAAETGAMATDPLVARKGRASYLGERSAGHRDPGAASTALLLRAAAAAAAGSTADKGADAV
  protein production: failed

## NTMRSFILRARSAPTDSQRLLDEIGGKCHTEILAHCMMNSLFTAQSHREDVVIHLVLESTRDYSRTITVEANEISDVGGFHEAALIALLVKALDASVGMGKEQTRVVQPGLTVRTISFEALLGELAEHHSLYMMDKKGDSIRDIKIGPNPCFILTDHIPMPKKSGNSMKRLGVEKISLGPKMLFASQCVTLIHNEIDHQEA
  protein production: failed

## FTPDYIFTSKIDTSYVRQDIVPEINGWNIDRWIEEIACNDNQVVKLLWQVINDSMNGNYTRKKAIFFVGDGNNGKGTFQELLSNVIGYSNIASLKVNEFDERFKLSVLEGKTAVIGDDVPVGVYVDDSSNFKSVVTGDPVLVEFKNKPLYRATFKCTVIQSTNGMPKFKDKTGGTLRRLLIVPFNANFNGIKENFKIKEDYIKNQQVLEYVLYKAINLDFET
  protein production: failed

## MADNTNVTRRSFLTATGAAAGSVALVGVSAGESDDPWNSDRSEYIVGVSNVEDDPQQHVEQYLQGQEQVGSVQERLNTAVVGLPADAPESVRKQFVDRLESRDTIKYVEQNVELQAQLVPNDPRFGDQYADQQVNAPEAWDTTTGDAGVTIGVVDQGVKYDHPDLDGNIDRSVSNGGRDFVDDDGDPYPDSLNEEIHGTHVAGIAAAEVNNGNGVTGIGNSSVIAGRALSERGSGSTADIADAITWAANEGADVINLSLGGGGYTNTMQNAVTYAANQGALVVAAAGNDGSGSVSYPAAYGGVLAVSALDPDESLASYSNYGPKIDLAAPGTNVLSTWTADDYESISGTSMATPVVAGVAGLTLAQWELSNAELRNHLKATAVDIGLSDRQQGAGRVDAANAVNTDPGSGGGGGGGGGGDSTSSSVSGSLRGRGDSNCWSFSYEYSNPSQVVIELDGPGNADFDLYANTSTNACPTTSSYEFRSWTTGSQESITIDNPDTSVDLNVLAYAYSGRGDLTVTVTEYK
  protein production: failed

## MFSLKNYSPSPLLSAKAKEYLVFTLVTLTIVVAGTLLFLFDPASSKLFPPSPFRSLTGLYCPGCGTLRALHQLLHGNLVGAFGLNPLMMISLPFMIYSYVAYGLKTINGRTLLVWFVPPKVIWFILQAILAYWVARNIPFAPFSWLAP
  protein production: failed

## MVSAFNTGRTDDVDEYIHPDYLNPATLEHGIHTGPKAFAQLVGWVRATFSEEARLEEVRIEERGPWVKAYLVLYGRHVGRLVGMPPTDRRFSGEQVHLMRIVDGKIRDHRDWPDFQGTLRQLGDPWPDDEGWRP
  protein production: not failed

## MMSGEHTLKAVRGSFIDVTRTIDNPEEIASALRFIEDGLLLIKQGKVEWFGEWENGKHQIPDTIRVRDYRGKLIVPGFVDTHIHYPQSEMVGAYGEQLLEWLNKHTFPTERRYEDLEYAREMSAFFIKQLLRNGTTTALVFGTVHPQSVDALFEAASHINMRMIAGKVMMDRNAPDYLLDTAESSYHQSKELIERWHKNGRLLYAITPRFAPTSSPEQMAMAQRLKEEYPDTWVHTHLCENKDEIAWVKSLYPDHDGYLDVYHQYGLTGKNCVFAHCVHLEEKEWDRLSETKSSIAFCPTSNLYLGSGLFNLKKAWQKKVKVGMGTDIGAGTTFNMLQTLNEAYKVLQLQGYRLSAYEAFYLATLGGAKSLGLDDLIGNFLPGKEADFVVMEPTATPLQQLRYDNSVSLVDKLFVMMTLGDDRSIYRTYVDGRLVYERN
  protein production: failed

## MNGRMSLFLRNSIGVMAAMLAGVATPVANAMDNSLASGVVRFALDTGEASSVVGLAMKLEGESADYLQARLMLASGQHDEARAGFEGVFNGASHRGEAALALAEMAQEDGDLTGAENWYQQARRTGYGEVAQKALLGLAELVRIQGKTDAAGQYLARMEDGYWAAVGYMNLAADFARDDLDSSRALVSLRVAMAMAAKDTDTSRSRALLDQLNLRAGYLALGSDDYDKAIDFLEKVSLESYHTPQALYLHGLALSSKGNHRAAMQSWHRAKKFPLAFPGVSDAWIGMGRGYDLSGYPGQAGESWLAANAAYEGERVTLGKLSERITAEGAYKALVQDARSDDIQWFLADNRTLTQPRMAYLLRFMEEPGAQVAVRRVARLDEMVATLDASKYNLEVFIQALEVFMASAGSGGVAPQTAGLEQQQSDLESRLNGLVEQAATPAQVAELRQLKQSLAGAGRRMGALNQQVVQRPERLETVLDDAGALRDATKDLRYKTLSLREQAARELDALALAFVKKQTQRMTHALDKTEQQIAHLYEYLALENLGEGAQ
  protein production: failed

## MKIINIGVLAHVDAGKTTLTESLLYTSGAIAESGSVDTGTTRTDTTFLERQRGITIQTAVTSFQWKDIKVNIIDTPGHMDFLAEVYRSLSVLDGAILLISARDGVQAQTRILFHALNKMGIPTIFFINKIDQNGIDLSTVYQDIKEKLSMEIIIKQKVELHPNMCVMSCTEPEQWDVVIEGNDYLLEKYTLGKSLEILELEQEEIRRFQNCSLYPVYHGSAKSNIGIEQLIEVITNKFYSSTYRKKSELCGNVFKIEYSEERQRLAYVRLYGGILHLRDSVRISEKEKIKITEMYTSINGELCKIDKAYSGEIVILQNEFLKLNSVLGDTKLLPQRERIENPLPLLQTTVEPSKPQQREMLLDALLEISDSDPLLQYYVDSTTHEIILSFLGKVQMEVTCALLQEKYHVEVKIKKPTVIYMERPLKKAEYTIHIEVPPNPFWASIGLSVAPLPLGSGVQYESSVSLGYLNQSFQNAVMEGIRYGCEQGLYGWNVTDCKICFKYGLYYSPVSTPADFRMLAPIVLEQVLKKAGTELLEPYLSFKIYAPQEYLSRAYNDAPKYCANIVDTQLKNNEVILSGEIPARCIQEYRNDLTFFTNGRSVCLTELKGYYVTTGESVCQPRRPNSRIDKVRYMFNKIT
  protein production: failed
